Data published in PMC5292753, “Structural analysis and evolution of specificity of the SUMO UFD E1-E2 interactions” (Scientific Reports, 2017).
Read-outs that look alike come from different tables or passages of the source. One block for each molecule: values may come before it.

What was measured:
[1] = target: SUMO E2 (Ubc9) (Homo sapiens) (UniProt P63279); assay: NMR; conditions: cited from earlier work
[2] = target: SUMO E2 (Ubc9) (Homo sapiens) (UniProt P63279); conditions: cited from earlier work
[3] = target: T1, human SUMO E2 conjugating enzyme Ubc9, full length (human, UniProt P63279 1-158, lysines methylated (borane-dimethylamine complex and formaldehyde), only in the complex that was crystallised); assay: native gel or EMSA; native gel electrophoresis of human E1 UFD domain with Ubc9 (Supplementary Fig. S1); conditions: both partners purified
T1 construct: SUMO-conjugating enzyme Ubc9, human, full length; Cloned in pET28a; the His tag was removed with thrombin, so a few residues of the vector may remain at the N-terminus; The complex with the UFD was lysine-methylated after gel filtration and only then crystallised; also called hSUMO Ubc9; source: E. coli BL21(DE3) pLysS, purified (Ni-NTA, thrombin, Superdex75 gel filtration); not shown: His6, …
T1 sequence (P63279 whole entry, the tested form may be a part): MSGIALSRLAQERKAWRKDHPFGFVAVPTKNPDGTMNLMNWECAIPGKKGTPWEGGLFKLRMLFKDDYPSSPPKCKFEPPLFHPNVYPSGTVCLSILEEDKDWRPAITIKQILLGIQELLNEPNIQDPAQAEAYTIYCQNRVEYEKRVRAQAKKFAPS

SUMO E2 (Ubc9) (Homo sapiens), sequence (P63279 2-158): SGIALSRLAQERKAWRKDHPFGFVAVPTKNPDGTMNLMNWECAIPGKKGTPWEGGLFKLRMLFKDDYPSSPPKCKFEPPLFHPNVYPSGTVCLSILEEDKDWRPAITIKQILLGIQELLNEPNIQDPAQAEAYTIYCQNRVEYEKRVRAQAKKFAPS

Molecule: SUMO E1 Cys domain Cys domain (from UniProt Q9UBT2)
Kd [1]: 87 µM

Molecule: SUMO E1 UFD UFD (from UniProt Q9UBT2)
Kd [2]: 1.2 µM

binding result [3]: binds
B1: human SUMO E1 Uba2 ubiquitin-fold domain (UFD), residues 447-547 (domain or fragment, UniProt Q9UBT2 447-547, looked up)
chain: KPEVTVRLNVHKVTVLTLQDKIVKEKFAMVAPDVQIEDGKGTILISSEEGETEANNHKKLSEFGIRNGSRLQADDFLQDYTLLINILHSEDLGKDVEFEVV
modifications: lysines methylated (borane-dimethylamine complex and formaldehyde), only in the complex that was crystallised
notes: designed from the structure of full-length human SAE1-SAE2 (PDB 1Y8Q); Cloned in pET28a; the His tag was removed with thrombin, so a few residues of the vector may remain at the N-terminus; The complex with Ubc9 was lysine-methylated after gel filtration and only then crystallised; the native gel and the gel filtration used the unmethylated protein; also called E1 UFD domain; HsUba2 UFD; source: …
